target: AD8 WT Env (gp160, from lysed pseudovirions / on pseudovirus) (HIV-1 AD8, clade B); test: cell-based or functional assay

Binder | IC50 (read off the curve); axis Neutralisation (%), panel AD8 [ng/mL]
1842 heavy chain with NC-Cow1 light chain (antibody) VH: KVQLQESGPSLVKPSQTLSLTCTASGFSLSDKAVGWVRQAPGQALEWLGSIDTGGNADYNPGLKSRLSITKDNAKSQVSLSVSSVTTEGSATYYCSTVHQKTLRSCPSDYPYICDCEDTGSHCCRATNCPYYCNHGRDRMCTGRTYTYEWHVEAWGQGLLVTVSS VL: HSYELTQPSSVSGSLGQRVSVTCSGSSSNVGNGYVSWYQLIPGSAPRTIIYGDTSRASGVPERFSGSRSGNTATLTISSLQAEDEADFFCASPDDSSSNAVFGSGTTLTVL | ~5
1872 heavy chain with NC-Cow1 light chain (antibody) VH: KVQLRESGPSLVKPSQTLSLTCTASGFSLSDKAVGWVRQAPGQPLEWLGTIDTTGNAVYNPGLKSRLSITKDNSKSQVSLSLSSVTTEDSATYHCSTVHQKTRRSCPSDYSFICDCEGTGSHCCRASNCPYYCNYGRDRMCTGRSNIHEWHVDAWGQGLLVTVSS VL: HSYELTQPSSVSGSLGQRVSVTCSGSSSNVGNGYVSWYQLIPGSAPRTIIYGDTSRASGVPERFSGSRSGNTATLTISSLQAEDEADFFCASPDDSSSNAVFGSGTTLTVL | ~7
VRC01 (antibody, V domains shown) VH: QVQLVQSGGQMKKPGESMRISCRASGYEFIDCTLNWIRLAPGKRPEWMGWLKPRGGAVNYARPLQGRVTMTRDVYSDTAFLELRSLTVDDTAVYFCTRGKNCDYNWDFEHWGRGTPVIVSS VL: EIVLTQSPGTLSLSPGETAIISCRTSQYGSLAWYQQRPGQAPRLVIYSGSTRAAGIPDRFSGSRWGPDYNLTISNLESGDFGVYYCQQYEFFGQGTKVQVDI | ~300

Reference: patent publication US20230272048A1 (UNIVERSITY OF MELBOURNE, published 2023)
